Measurements reported in the supplement of paper PMC10567573.

B1: PKD2L1 (parent)
chain: YSGGGYYLDLPGSRQGSAEALRAL
B2: KIAA1161 (parent)
chain: FMPAMQFSIPPWRYDAEVVAIAQK
B3: SLC2A12 (parent)
chain: CLLGLGSLVLILSLSYTVLIVGRI

Variants of: B1
Experiment: protein stability index of a GFP-peptide fusion (GPS, HEK-293T) (PSI 1-6); higher = more stable
Conditions: c terminus: a fixed tail appended
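Also: lentivirally expressed fusions sorted by FACS into six bins by GFP to DsRed ratio, PSI derived from sequencing read proportions per bin multiplied by bin number.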

Protein stability index, by site and new letter:
L21: E 1.36; I 1.75; T 1.86; V 1.8; Q 1.87; A 1.46; H 2.05; F 2.09; Y 1.91; C 1.41; R 1.25; W 1.29; P 2.23; G 1.89; K 2.26; D 1.98; S 2.27; N 1.99; M 3.01
A23: Y 1.53; W 2.22; H 2.09; G 1.44; D 2.21; I 1.66; Q 2.53; K 1.72; L 1.73; S 1.86; N 2.05; C 1.59; F 2.52; P 2.19; T 2.24; V 2.45; M 2.03; E 1.95; R 2.26
R22: A 2.13; F 2.84; C 2.11; T 1.82; Q 1.5; D 1.26; K 2.08; Y 2.02; S 2.92; E 1.86; V 2.03; L 1.36; I 3.18; P 1.78; G 1.69; H 1.92; N 1.65; W 3.79; M 2.61
A18: S 1.5; I 1.55; K 2.75; Y 1.75; D 2.65; V 1.49; P 1.79; H 1.61; M 1.88; W 1.61; E 1.71; C 2.16; N 1.86; Q 2.15; F 1.57; G 1.81; R 1.71; T 1.35; L 2.12
G16: T 1.84; V 1.77; Y 2.13; W 2.5
E19: F 2.33; T 1.77; D 1.81; H 1.42; L 1.84; I 1.45; Q 1.63; A 1.64; K 1.98; S 1.49; W 1.74; P 2.03; V 1.89; M 2.09; G 2.02; C 2.27; R 2.16; N 1.77; Y 2.23
L24: P 2.7; F 1.99; H 2.65; T 1.61; N 2.1; S 2.41; M 1.63; G 2.63; D 1.6; I 1.63; Y 2.12; Q 1.17; V 2.33; C 1.62; E 1.49; W 1.62; R 2.34; A 1.85; K 2.91
S17: T 2; G 3.5; K 1.78; E 2; V 1.61; L 2.13; A 1.6; Q 3.08; M 2.3; F 1.98; N 2.01; H 2.36; Y 2.03; D 1.92; C 1.39; W 1.98; R 1.41; I 1.75; P 2.32
A20: T 2.65; D 1.86; R 1.29; I 1.37; L 1.72; K 1.74; H 1.25; M 1.81; W 2.36; P 2.62; N 2.02; F 2.64; Y 1.76; C 3.77; G 1.66; V 1.6; S 2.2; Q 1.66

Variants of: B2
Experiment: as above
Conditions: c terminus: a fixed tail appended

Protein stability index of substitutions, site by site:
F1: L 2.37; W 1.95; M 2.83; V 2.7; E 2.81; Y 1.82; Q 3.2; N 2.61; A 2.3; I 2.52; G 2.04; K 2.55; C 1.97; D 3.37; S 1.84; P 2.33; R 3.23
M2: E 2.83; C 1.97; D 3.16; A 2.47; H 1.74

Variants of: B3
Experiment: as above
Conditions: c terminus: a fixed tail appended

Protein stability index, by site and new letter:
L14: V 3.61; D 2.03; F 2.16; E 2.46; H 3.01
R23: L 2.88; K 3.91; F 1.85; A 1.68; E 3.06; C 3.83; T 2.41; Y 1.35; I 1.07; M 2.33; Q 2.57
G22: K 2.08; T 4.65; H 2.75; S 2.04; Q 3.23; E 3.84; F 3.4; V 3.25
L8: H 2.87; D 4.51; P 2.7; I 3
I20: P 2.85; Q 3.17; M 2.69; N 3.97; L 3.62
V21: Y 3.38; P 3.7; E 1.97; F 4.2; C 3.06; I 3.74; L 2.77
G4: Y 4.5; F 3.56; L 4.03; C 2.73; D 3.12
C1: K 1.68; W 1.27; M 2.46; R 2.88; L 2.46; N 2.15; I 1.83
L12: E 3.91; I 1.58; T 2.44; Y 3.84; P 2.04; V 3.35; S 1.92; N 2.87; Q 3.11; W 3.73
V9: F 3.79; T 2.25; Y 2.23; D 3.2; N 1.9; S 3.94; H 2.07; K 1.27
S15: Q 1.91; D 2.87; I 3.21; N 3.57; W 1.8; C 4.02; H 3.25
L3: T 1.32; K 2.17; R 2.62; E 2.54; N 2.92
L19: N 2.96; H 3.95; W 1.77; P 3.35; V 3.24; R 4.06
L10: C 3.02; T 3.09; K 2.9; W 3.03; S 2.96; N 2.3
V18: M 4.12; K 2.98; L 2.48; S 3.07; F 1.87; H 2.43; T 2.93
L5: Y 3.19; E 2.46; G 3.97; R 2.84; H 2.6; W 2.12; Q 2.45; I 3.48; M 3.94
Y16: W 1.91; M 3.02; P 3.53
I24: R 4.47; S 4.47; F 2.09; W 3.02; H 4.96; K 2.5; L 2.31; V 2.79
G6: E 3.33; I 2.69; C 4.32; A 2.43; Y 3.29; H 2.78; D 3.1; T 2.06; F 2.27
L2: M 2.96; C 2.93; Q 1.55; H 3.48; K 1.76
T17: F 3.38; Y 2.3; E 3.32; N 2.91
S7: T 2.51; I 2.45; N 2.72; A 3.86; P 2.76; K 2.01; H 1.81; R 1.8
I11: E 4.57; Y 1.36; D 3.63; W 1.42
S13: F 3.31; I 3.33; R 1.87; L 2; N 1.87; D 2.82
